To fix the notation:
B1: TRIM55 (parent)
chain: YLPTRGGTTMASGGRFRCPSCRHE
B2: ELF3 (parent)
chain: RLVYKFGKNSSGWKEEEVLQSRN
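Note: lentivirally expressed fusions sorted by FACS into six bins by GFP to DsRed ratio, PSI derived from sequencing read proportions per bin multiplied by bin number.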

The variants in the first data set derive from B1. Put plainly: protein stability index of a GFP-peptide fusion (GPS, HEK-293T) (PSI 1-6); higher = more stable. As to conditions: c terminus: a fixed tail appended.
Take YLPTRIGTTMASGGRFRCPSCRHE: the protein stability index turned out to be 1.04.
As to YLPTRNGTTMASGGRFRCPSCRHE, the protein stability index came out at 1.21.
YLPTRPGTTMASGGRFRCPSCRHE: the protein stability index is 1.78.
The same measure, in the same setting: the figure for YLPTRSGTTMASGGRFRCPSCRHE is 1.97.
The same measure, in the same setting: the figure for YLPTRCGTTMASGGRFRCPSCRHE is 1.84; for YLPTRDGTTMASGGRFRCPSCRHE it is 2.45.
Same read-out and setting: in the case of YLPTREGTTMASGGRFRCPSCRHE it was 1.67; in that of YLPTRLGTTMASGGRFRCPSCRHE, 1.76; in that of YLPTRYGTTMASGGRFRCPSCRHE, 1.37.
YLPTRQGTTMASGGRFRCPSCRHE: the protein stability index turned out to be 2.15.
The same measure, in the same setting: in the case of YLPTRWGTTMASGGRFRCPSCRHE it was 1.46; in that of YLRTRGGTTMASGGRFRCPSCRHE, 3.49; in that of YLVTRGGTTMASGGRFRCPSCRHE, 1.97.
The same measure, in the same setting: in the case of YLDTRGGTTMASGGRFRCPSCRHE it was 1.04; in that of YLITRGGTTMASGGRFRCPSCRHE, 1; in that of YLETRGGTTMASGGRFRCPSCRHE, 1.
The same measure, in the same setting: in the case of YLNTRGGTTMASGGRFRCPSCRHE it was 2.29; in that of YLLTRGGTTMASGGRFRCPSCRHE, 1.32; in that of YLPTRGGKTMASGGRFRCPSCRHE, 2.1.
As to YLPTRGGDTMASGGRFRCPSCRHE, the protein stability index worked out at 1.36.
As to YLPTRGGNTMASGGRFRCPSCRHE, the protein stability index is 1.98.
With YLPTRGGMTMASGGRFRCPSCRHE, the protein stability index was determined as 4.36.
For YLPTRGGVTMASGGRFRCPSCRHE, the protein stability index worked out at 2.03.
Regarding YLPTRGGSTMASGGRFRCPSCRHE, the protein stability index came to 1.14.
Turning to YLPTRGGATMASGGRFRCPSCRHE, the protein stability index is 1.11.
The same measure, in the same setting: in the case of YLPTRGGLTMASGGRFRCPSCRHE it was 4.11; in that of YLPTRGGHTMASGGRFRCPSCRHE, 2.88; in that of YLPTRGGRTMASGGRFRCPSCRHE, 1.94.
On the same count and under the same terms, in the case of YLPTRGGCTMASGGRFRCPSCRHE it was 3.19.
For the variant YLPTWGGTTMASGGRFRCPSCRHE, the protein stability index came to 3.96.
Consider YLPTEGGTTMASGGRFRCPSCRHE, for which the protein stability index was found to be 2.4.
For YLPTDGGTTMASGGRFRCPSCRHE, the protein stability index is 1.73.
The same measure, in the same setting: the figure for YLPTVGGTTMASGGRFRCPSCRHE is 1.51; for YLPTAGGTTMASGGRFRCPSCRHE it is 1.87; for YLPTHGGTTMASGGRFRCPSCRHE it is 1.32.
Still for that read-out and setting: the figure for YLPTNGGTTMASGGRFRCPSCRHE is 1.44.
In the case of YLPTIGGTTMASGGRFRCPSCRHE, the protein stability index is 1.98.
On the same count and under the same terms, the figure for YLPTGGGTTMASGGRFRCPSCRHE is 2.
Same read-out and setting: in the case of YLPTQGGTTMASGGRFRCPSCRHE it was 2.28.
The same measure, in the same setting: in the case of YLPTRGQTTMASGGRFRCPSCRHE it was 2.24; in that of YLPTRGLTTMASGGRFRCPSCRHE, 1.34; in that of YLPTRGFTTMASGGRFRCPSCRHE, 1.26.
YLPTRGYTTMASGGRFRCPSCRHE: the protein stability index amounted to 2.17.
Still for that read-out and setting: in the case of YLPTRGWTTMASGGRFRCPSCRHE it was 1.5.
For YLPTRGRTTMASGGRFRCPSCRHE, the protein stability index was 1.12.
Turning to YLPTRGPTTMASGGRFRCPSCRHE, the protein stability index is 2.91.
Take YLPTRGKTTMASGGRFRCPSCRHE: the protein stability index came to 1.01.
Same read-out and setting: in the case of YLPTRGATTMASGGRFRCPSCRHE it was 1.64.
On the same count and under the same terms, in the case of YLPTRGETTMASGGRFRCPSCRHE it was 1.75; in that of YLPTRGITTMASGGRFRCPSCRHE, 1.45.
Consider YLPTRGVTTMASGGRFRCPSCRHE, for which the protein stability index was determined as 1.37.
The same measure, in the same setting: in the case of YLPTRGTTTMASGGRFRCPSCRHE it was 2.33; in that of YLPPRGGTTMASGGRFRCPSCRHE, 1.36.
The same measure, in the same setting: in the case of YLPWRGGTTMASGGRFRCPSCRHE it was 1.
YLPMRGGTTMASGGRFRCPSCRHE: the protein stability index stood at 1.26.
YLPSRGGTTMASGGRFRCPSCRHE: the protein stability index came out at 2.1.
Still for that read-out and setting: the figure for YLPYRGGTTMASGGRFRCPSCRHE is 1.24; for YLPLRGGTTMASGGRFRCPSCRHE it is 2.73; for YLPQRGGTTMASGGRFRCPSCRHE it is 1.7.
The same measure, in the same setting: the figure for YLPHRGGTTMASGGRFRCPSCRHE is 1.19; for YLPCRGGTTMASGGRFRCPSCRHE it is 3.98.
Still for that read-out and setting: the figure for YLPVRGGTTMASGGRFRCPSCRHE is 4.07.
Regarding YLPERGGTTMASGGRFRCPSCRHE, the protein stability index came to 3.35.
Take YRPTRGGTTMASGGRFRCPSCRHE: the protein stability index was found to be 1.77.
Consider YWPTRGGTTMASGGRFRCPSCRHE, for which the protein stability index stood at 2.7.
Same read-out and setting: in the case of YTPTRGGTTMASGGRFRCPSCRHE it was 1.38; in that of YIPTRGGTTMASGGRFRCPSCRHE, 2.22.
Regarding YEPTRGGTTMASGGRFRCPSCRHE, the protein stability index was found to be 2.98.
Consider YPPTRGGTTMASGGRFRCPSCRHE, for which the protein stability index was determined as 1.71.
As for YQPTRGGTTMASGGRFRCPSCRHE, the protein stability index came to 1.02.
Still for that read-out and setting: the figure for YMPTRGGTTMASGGRFRCPSCRHE is 1.93.
As to YFPTRGGTTMASGGRFRCPSCRHE, the protein stability index is 2.46.
For the variant YKPTRGGTTMASGGRFRCPSCRHE, the protein stability index came to 1.32.
Same read-out and setting: in the case of YHPTRGGTTMASGGRFRCPSCRHE it was 2.78; in that of VLPTRGGTTMASGGRFRCPSCRHE, 1.89; in that of GLPTRGGTTMASGGRFRCPSCRHE, 3.18.
The same measure, in the same setting: the figure for HLPTRGGTTMASGGRFRCPSCRHE is 2.79.
With WLPTRGGTTMASGGRFRCPSCRHE, the protein stability index was 2.99.
In the case of KLPTRGGTTMASGGRFRCPSCRHE, the protein stability index amounted to 1.46.
Consider FLPTRGGTTMASGGRFRCPSCRHE, for which the protein stability index stood at 2.51.
Still for that read-out and setting: in the case of MLPTRGGTTMASGGRFRCPSCRHE it was 1.67; in that of DLPTRGGTTMASGGRFRCPSCRHE, 2.15.
In the case of SLPTRGGTTMASGGRFRCPSCRHE, the protein stability index turned out to be 3.15.
Turning to ALPTRGGTTMASGGRFRCPSCRHE, the protein stability index is 2.59.
On to NLPTRGGTTMASGGRFRCPSCRHE, for which the protein stability index is 3.07.
For the variant ILPTRGGTTMASGGRFRCPSCRHE, the protein stability index was 2.52.
On the same count and under the same terms, in the case of QLPTRGGTTMASGGRFRCPSCRHE it was 2.45.
As to CLPTRGGTTMASGGRFRCPSCRHE, the protein stability index turned out to be 2.14.
Turning to LLPTRGGTTMASGGRFRCPSCRHE, the protein stability index came out at 2.06.

The variants in a further data set derive from B2. The description is as above. As to conditions: c terminus: native.
For the variant RLVYKFGKNSSGWKEEEVLQSRQ, the protein stability index was 1.87.
The same measure, in the same setting: the figure for RLVYKFGKNSSGWKEEEVLQSRT is 2.37.
For the variant RLVYKFGKNSSGWKEEEVLQSRL, the protein stability index came out at 3.28.
With RLVYKFGKNSSGWKEEEVLQSRC, the protein stability index came out at 1.7.
Still for that read-out and setting: in the case of RLVYKFGKNSSGWKEEEVLQSRF it was 2.86; in that of RLVYKFGKNSSGWKEEEVLQSRM, 1.81.
